The target of one assay is T1, anti-FX-arm of ACE910.
T1 construct: This is inferred from the parallel order 'anti-FIXa/FX' and 'Q499-z121/J327-z119' and from the AQ/AJ antibody names; also called anti-FX side; anti-FX-F(ab')2
The assay is described as follows: ELISA, hybridoma culture supernatant. The procedure:
(§1) Mice and rats were immunized with anti-FIXa-F(ab′)2 or anti-FX-F(ab′)2. Cells obtained from the spleen removed from the mice or rats or from rat lymph nodes were subjected to cell fusion with mouse myeloma cells by following general methods to produce the hybridomas. The culture supernatants of the hybridomas were evaluated by ELISA which detects the binding of ACE910 to the anti-FIXa-arm or the anti-FX-arm, and ultimately, mouse antibodies, AQ8 and AQ1, and rat antibody, AQ512, which bind only to the anti-FIXa-arm but not to the anti-FX-arm of ACE910, and rat antibodies, AJ540, AJ114, AJ521, AJ522, and AJ541, which bind only to the anti-FX-arm but not to the anti-FIXa-arm of ACE910 were selected. In addition, the nucleotide sequences of the variable regions of the AQ8 antibody or the AJ540 antibody were analyzed. The nucleotide sequences of the variable regions of AQ8 and AJ540, and amino acid sequences predicted therefrom were analyzed using GENETYX Ver.9 (GENETYX CORPORATION).
For orientation: An ELISA detects its analyte on a solid surface through an enzyme-linked reagent.

In another assay the target is T2, anti-FIXa-arm of ACE910.
T2 construct: This is inferred from the parallel order 'anti-FIXa/FX' and 'Q499-z121/J327-z119' and from the AQ/AJ antibody names; also called anti-FIXa side; anti-FIXa-F(ab')2
T2 sequence (VH, as listed by the source, chain 1 of 2): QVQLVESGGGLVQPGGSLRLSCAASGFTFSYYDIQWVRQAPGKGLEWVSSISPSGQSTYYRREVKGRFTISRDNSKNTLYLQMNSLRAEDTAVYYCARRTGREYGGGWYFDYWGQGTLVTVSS
T2 sequence (VL, as listed by the source, chain 2 of 2): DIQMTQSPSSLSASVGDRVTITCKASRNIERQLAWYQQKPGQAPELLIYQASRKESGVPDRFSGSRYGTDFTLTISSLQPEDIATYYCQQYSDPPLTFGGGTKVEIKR
Put plainly: ELISA, hybridoma culture supernatant. The procedure:
as §1

T1 sequence (VH, as listed by the source, chain 1 of 2): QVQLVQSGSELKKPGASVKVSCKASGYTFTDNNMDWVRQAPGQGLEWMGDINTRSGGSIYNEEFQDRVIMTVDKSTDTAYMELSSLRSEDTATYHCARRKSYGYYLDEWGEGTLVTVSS
T1 sequence (VL, as listed by the source, chain 2 of 2): as the sequence (VL, as listed by the source, chain 2 of 2) above

B1: mouse antibody AQ8 (antibody, V domains shown)
VH: EVNLVESGGGLVQPGGSMSLSCAASGFTFTDYYMSWVRQPPGKALEWLALIRNKANGYTTEYSASVKGRFTISRDNSQSILYLQMNALRAEDSATYYCARDSYYSYDGYAMDYWGQGTSVTVSS
VL: DIQMTQSPASLAASVGETITITCQASENIYFSLAWYQQKQGKSPQLLIYNTDSLKDGVPSRFSGSGSGTQYSMKINSMQPEDTATYFCRQSYDFPWTFGGGTKLEIK
notes: Mouse hybridoma antibody, tested as culture supernatant in ELISA; also called AQ8 antibody
In the case of B1, in the assay with anti-FX-arm of ACE910, the binding result is “no binding”.

B2: rat antibody AJ540 (antibody, V domains shown)
VH: QIQLVQSGPELKKPGESVKISCKASGYTFTDYAMHWVKQVPGKGLKWMGWINTYTGKPTYADDFKGRFVFSLEASASTANLQISNLKNEDTANVFCAREGGGYYWYFDFWGPGTMVTVSS
VL: DIVMTQSPTSMSISVGDRVTMNCKANQNVDFNVDWYQQKTGQSPKLLIYKASNRYTGVPDRFTGSGSGTDFTFTISNMQAEDLAVYYCMQSNSFPLTFGSGTNLEIK
notes: Rat hybridoma antibody, tested as culture supernatant in ELISA; also called AJ540 antibody
With B2, in the assay with anti-FIXa-arm of ACE910, the binding result was “no binding”.

The values above are taken from patent US20170275376A1 (Chugai, published 2017).
